Experimental data reported in the Immune Epitope Database (IEDB).
pKd: −log10 of the molar value.

Experiments:
[1] = molecular target: HLA-A*02:03; test: IEDB peptide-MHC binding, purified MHC/direct/fluorescence; filed as Kd, often an IC50 or EC50 that approximates it; ≥ and ≤ were set here for values at or beyond the usual limits of such assays; conditions: source organism: Mycobacterium tuberculosis str. Haarlem
[2] = molecular target: HLA-B*27:03; test: as above; conditions: source organism: Mycobacterium tuberculosis str. Haarlem
[3] = molecular target: HLA-A*29:02; test: as above; conditions: source organism: Mycobacterium tuberculosis str. Haarlem
[4] = molecular target: HLA-B*46:01; test: as above; conditions: source organism: Mycobacterium tuberculosis str. Haarlem
[5] = molecular target: HLA-A*02:12; test: as above; conditions: source organism: Mycobacterium tuberculosis str. Haarlem
[6] = molecular target: HLA-A*26:01; test: as above; conditions: source organism: Mycobacterium tuberculosis str. Haarlem
[7] = molecular target: HLA-B*57:01; test: as above; conditions: source organism: Mycobacterium tuberculosis str. Haarlem
[8] = molecular target: HLA-A*03:01; test: as above; conditions: source organism: Mycobacterium tuberculosis str. Haarlem
[9] = molecular target: HLA-B*35:01; test: as above; conditions: source organism: Mycobacterium tuberculosis str. Haarlem
[10] = molecular target: HLA-A*24:03; test: as above; conditions: source organism: Mycobacterium tuberculosis str. Haarlem
[11] = molecular target: HLA-B*18:01; test: as above; conditions: source organism: Mycobacterium tuberculosis str. Haarlem
[12] = molecular target: HLA-B*51:01; test: as above; conditions: source organism: Mycobacterium tuberculosis str. Haarlem
[13] = molecular target: HLA-B*39:01; test: as above; conditions: source organism: Mycobacterium tuberculosis str. Haarlem
[14] = molecular target: HLA-A*02:16; test: as above; conditions: source organism: Mycobacterium tuberculosis str. Haarlem
[15] = molecular target: HLA-A*02:19; test: as above; conditions: source organism: Mycobacterium tuberculosis str. Haarlem
[16] = molecular target: HLA-A*02:01; test: as above; conditions: source organism: Mycobacterium tuberculosis str. Haarlem
[17] = molecular target: HLA-B*15:01; test: as above; conditions: source organism: Mycobacterium tuberculosis str. Haarlem
[18] = molecular target: HLA-B*07:02; test: as above; conditions: source organism: Mycobacterium tuberculosis str. Haarlem
[19] = molecular target: HLA-A*02:11; test: as above; conditions: source organism: Mycobacterium tuberculosis str. Haarlem
[20] = molecular target: HLA-B*83:01; test: IEDB peptide-MHC binding, purified MHC/competitive/fluorescence; filed as Kd, often an IC50 or EC50 that approximates it; ≥ and ≤ were set here for values at or beyond the usual limits of such assays; conditions: source organism: Homo sapiens
[21] = molecular target: HLA-B*45:06; test: as above; conditions: source organism: Homo sapiens
[22] = molecular target: HLA-B*15:42; test: as above; conditions: source organism: Homo sapiens
[23] = molecular target: HLA-B*73:01; test: IEDB peptide-MHC binding, purified MHC/direct/fluorescence; filed as Kd, often an IC50 or EC50 that approximates it; ≥ and ≤ were set here for values at or beyond the usual limits of such assays; conditions: source organism: Homo sapiens

Sequence: WASGVPAAT
- pKd [1]: ≤ 4.70
- pKd [2]: ≤ 4.70
- pKd [3]: ≤ 4.70
- pKd [4]: ≤ 4.70
- pKd [5]: ≤ 4.70
- pKd [6]: ≤ 4.70
- pKd [7]: ≤ 4.70
- pKd [8]: ≤ 4.70
- pKd [9]: 6.50
- pKd [10]: ≤ 4.70
- pKd [11]: ≤ 4.70
- pKd [12]: ≤ 4.70
- pKd [13]: ≤ 4.70
- pKd [14]: ≤ 4.70
- pKd [15]: ≤ 4.70
- pKd [16]: ≤ 4.70
- pKd [17]: ≤ 4.70
- pKd [18]: 5.19
- pKd [19]: ≤ 4.70

Sequence: YEHYFVFAA
- pKd [20]: ≤ 5.30
- pKd [21]: 6.42
- pKd [22]: ≤ 5.30
- pKd [23]: 7.65
